# Like-named read-outs stand apart in the source and are kept apart here.
# Experiments:
# OR5B12 = target: T1, OR5B12 (Homo sapiens, UniProt Q96R08, C141R); experiment: CRE-luciferase assay, HEK293T cells expressing OR5B12 (wild-type / modified C-terminus); type: cell-based; settings: for Fold-improvement potency / Fold-improvement threshold: changed C-term. vs wild-type; for % of the activation by the optimized sequence RNKEVKDALKRLLKRKCC: OR5B12 variant
# T1 construct: Improved functional expression of modified OR-genes containing the truncated, optimized C-terminus; expressed in transfected cells; host or cells: HEK293T stably expressing human RTP1S(V227I) and RTP2(L220R)
# T1 sequence (Q96R08 with tags, fused parts or gaps C141R): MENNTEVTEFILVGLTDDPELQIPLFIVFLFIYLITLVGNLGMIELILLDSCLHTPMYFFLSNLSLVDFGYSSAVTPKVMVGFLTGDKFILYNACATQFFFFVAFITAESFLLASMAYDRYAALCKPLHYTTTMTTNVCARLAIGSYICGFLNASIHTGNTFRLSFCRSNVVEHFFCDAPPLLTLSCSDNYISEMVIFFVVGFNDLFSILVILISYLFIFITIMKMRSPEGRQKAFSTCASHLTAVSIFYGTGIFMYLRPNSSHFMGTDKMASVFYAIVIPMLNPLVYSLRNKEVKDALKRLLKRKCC
# OR2T4 = target: T2, OR2T4 (Homo sapiens, UniProt Q8NH00, D328E/G331D/M330K); settings: for ligand identification in sulfur odorant screen: OR2T4 with optimized C-terminus SEQ ID NO: 86; for % of the activation by the optimized sequence RNKEVKDALKRLLKRKCC: OR2T4 variant
# T2 sequence (Q8NH00 with tags, fused parts or gaps D328E/M330K/G331D): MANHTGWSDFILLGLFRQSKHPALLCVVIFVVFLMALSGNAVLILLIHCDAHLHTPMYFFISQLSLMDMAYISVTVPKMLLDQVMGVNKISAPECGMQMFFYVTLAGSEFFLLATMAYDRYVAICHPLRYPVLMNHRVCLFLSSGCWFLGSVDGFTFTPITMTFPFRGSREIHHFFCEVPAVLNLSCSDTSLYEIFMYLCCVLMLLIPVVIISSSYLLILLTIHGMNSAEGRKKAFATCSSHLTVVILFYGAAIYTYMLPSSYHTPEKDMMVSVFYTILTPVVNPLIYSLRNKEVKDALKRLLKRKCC
# OR7C1 = target: T3, OR7C1 (Homo sapiens, UniProt O76099, D296E/G302K/M297V/R299D/T295K/V126I); experiment: CRE-luciferase assay, HEK293T cells expressing OR7C1 (wild-type / modified C-terminus); type: cell-based; settings: OR7C1 variant, 1 μM Ambermax
# T3 construct: Improved functional expression of modified OR-genes containing the truncated, optimized C-terminus; expressed in transfected cells; host or cells: HEK293T stably expressing human RTP1S(V227I) and RTP2(L220R)
# T3 sequence (O76099 with tags, fused parts or gaps V126I/T295K/D296E/M297V/R299D/G302K): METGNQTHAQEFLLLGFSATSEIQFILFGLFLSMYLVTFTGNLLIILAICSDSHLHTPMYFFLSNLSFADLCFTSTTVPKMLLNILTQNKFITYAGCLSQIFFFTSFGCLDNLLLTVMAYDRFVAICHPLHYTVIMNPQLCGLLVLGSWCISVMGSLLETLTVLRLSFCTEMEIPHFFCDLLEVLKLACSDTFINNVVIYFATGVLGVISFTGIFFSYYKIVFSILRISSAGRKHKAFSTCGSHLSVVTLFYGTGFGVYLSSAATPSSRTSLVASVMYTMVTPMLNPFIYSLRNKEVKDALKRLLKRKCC
# From the text: To test for possible variants of the sequence […]CC (SEQ ID NO: 86) leading to similar improved functional expression, different point mutations were introduced into the first 16 amino acids of this sequence (corresponding to […], SEQ ID NO: 10) and the variants were fused after the TM7 with OR7C1. […] The test concentrations were selected to fall into the range of partial activity of the wild-type sequence.
# [1] = 4 μM 2-methyl-3-tetrahydrofuranethiol
# [2] = 8 μM 2-methyl-3-tetrahydrofuranethiol
Compound,% of the activation by the optimized sequence RNKEVKDALKRLLKRKCC (OR5B12; 31 μM Hedione HC) [%],% of the activation by the optimized sequence RNKEVKDALKRLLKRKCC (OR5B12; 62.5 μM Hedione HC) [%],other results
"CCCCCC1C(=O)CCC1CC(=O)OC (racemic) [Hedione HC, reference compound]",–,–,Comments on efficacy (OR5B12): 4-fold lower; Detection threshold; concentration for 2-fold induction (OR5B12; changed C-term. SEQ ID NO: 86): 8.8 µM; EC50 (OR5B12; changed C-term. SEQ ID NO: 86): 18.3 µM; Fold-improvement potency (OR5B12): 3.8; Fold-improvement threshold (OR5B12): 11; Detection threshold; concentration for 2-fold induction (OR5B12; wild-type): 96 µM; EC50 (OR5B12; wild-type): 69 µM
"CC1OCCC1S (centres unmarked) [2-methyl-3-tetrahydrofuranthiol, reference compound]",–,–,ligand identification in sulfur odorant screen (OR2T4): good ligands
"CCCCCC1C(=O)CCC1CC(=O)OC (centres unmarked) [Hedione, reference compound]",–,–,Comments on efficacy (OR5B12): type only 1.75-; Detection threshold; concentration for 2-fold induction (OR5B12; changed C-term. SEQ ID NO: 86): 29 µM; EC50 (OR5B12; changed C-term. SEQ ID NO: 86): 58.3 µM; Fold-improvement potency (OR5B12): >5; Fold-improvement threshold (OR5B12): >9; Detection threshold; concentration for 2-fold induction (OR5B12; wild-type): (>>250) μM; EC50 (OR5B12; wild-type): > 250 µM
"CCCSSCCC [dipropyl disulfide, reference compound]",–,–,ligand identification in sulfur odorant screen (OR2T4): good ligands
SEQ ID NO: 10 (RNKEVKDALKRLLKRK; source 1..16: note = C-terminal domain sequence),0,0,"% of the activation by the optimized sequence RNKEVKDALKRLLKRKCC (OR7C1): 89.5%; % of the activation by the optimized sequence RNKEVKDALKRLLKRKCC (OR2T4; 10 μM Cyclopentanethiol, 30 μM copper): 25.3%; % of the activation by the optimized sequence RNKEVKDALKRLLKRKCC (OR2T4; 31 μM Cyclopentanethiol, 30 μM copper): 25.2%"
SEQ ID NO: 114 (RNKEVKRAIKRLLKRKCC; source 1..18: note = C-terminal domain sequence),317.8,195.1,% of the activation by the optimized sequence RNKEVKDALKRLLKRKCC (OR7C1): 262.4%; % of the activation by the optimized sequence RNKEVKDALKRLLKRKCC (OR2T4; [1]): 108.8%; % of the activation by the optimized sequence RNKEVKDALKRLLKRKCC (OR2T4; [2]): 116.6%
SEQ ID NO: 115 (RNKEVKKAIKRLLKRKCC; source 1..18: note = C-terminal domain sequence),349.2,242.5,% of the activation by the optimized sequence RNKEVKDALKRLLKRKCC (OR2T4; [1]): 103.1%; % of the activation by the optimized sequence RNKEVKDALKRLLKRKCC (OR2T4; [2]): 115.2%
SEQ ID NO: 133 (RNKEVKDALKRLLKRKCRR; source 1..19: note = C-terminal domain sequence),–,–,% of the activation by the optimized sequence RNKEVKDALKRLLKRKCC (OR7C1): 188.9%; % of the activation by the optimized sequence RNKEVKDALKRLLKRKCC (OR2T4; [1]): 101.4%; % of the activation by the optimized sequence RNKEVKDALKRLLKRKCC (OR2T4; [2]): 110.0%
SEQ ID NO: 134 (RNKEVKDALKRLLKRKCCC; source 1..19: note = C-terminal domain sequence),168.91,121.37,–
SEQ ID NO: 135 (RNKEVKDALKRLLKRKCCF; source 1..19: note = C-terminal domain sequence),207.32,127.22,–
SEQ ID NO: 136 (RNKEVKDALKRLLKRKCCL; source 1..19: note = C-terminal domain sequence),533.84,189.64,–
SEQ ID NO: 137 (RNKEVKDALKRLLKRKCCM; source 1..19: note = C-terminal domain sequence),177.47,182.76,–
SEQ ID NO: 138 (RNKEVKDALKRLLKRKCCS; source 1..19: note = C-terminal domain sequence),176.99,75.63,–
SEQ ID NO: 139 (RNKEVKDALKRLLKRKCCP; source 1..19: note = C-terminal domain sequence),98.68,98.17,–
SEQ ID NO: 140 (RNKEVKDALKRLLKRKCCA; source 1..19: note = C-terminal domain sequence),230.04,143.71,–
SEQ ID NO: 141 (RNKEVKDALKRLLKRKCCY; source 1..19: note = C-terminal domain sequence),298.48,274.09,–

Compound,% of the activation by the optimized sequence RNKEVKDALKRLLKRKCC (OR5B12; 31 μM Hedione HC) [%],% of the activation by the optimized sequence RNKEVKDALKRLLKRKCC (OR5B12; 62.5 μM Hedione HC) [%],other results
SEQ ID NO: 142 (RNKEVKDALKRLLKRKCCH; source 1..19: note = C-terminal domain sequence),142.62,129.19,–
SEQ ID NO: 143 (RNKEVKDALKRLLKRKCCN; source 1..19: note = C-terminal domain sequence),137.13,91.94,–
SEQ ID NO: 144 (RNKEVKDALKRLLKRKCCD; source 1..19: note = C-terminal domain sequence),86.54,56.54,–
SEQ ID NO: 145 (RNKEVKDALKRLLKRKCCK; source 1..19: note = C-terminal domain sequence),280.71,237.30,–
SEQ ID NO: 146 (RNKEVKDALKRLLKRKCCR; source 1..19: note = C-terminal domain sequence),619.88,248.52,–
SEQ ID NO: 147 (RNKEVKDALKRLLKRKCCG; source 1..19: note = C-terminal domain sequence),394.57,300.08,–
SEQ ID NO: 148: printed for RNKEVKDALKRLLKRKCRR in Table 6,181.2,189.0,–
SEQ ID NO: 151 (RNKEVKDALKRLLKRKCCRR; source 1..20: note = C-terminal domain sequence),240.6,229.5,–
SEQ ID NO: 219 (RNKEVKDALKRLLKRKCCRRRR; source 1..22: note = C-terminal domain sequence),244.3,239.6,–
SEQ ID NO: 220 (RNKEVKKAIKRLLKRKCCRRR; source 1..21: note = C-terminal domain sequence),1092.9,922.2,% of the activation by the optimized sequence RNKEVKDALKRLLKRKCC (OR2T4; [1]): 76.6%; % of the activation by the optimized sequence RNKEVKDALKRLLKRKCC (OR2T4; [2]): 61.9%
Tyr Arg,–,–,% of the activation by the optimized sequence RNKEVKDALKRLLKRKCC (OR7C1): 127.8%
Tyr Leu,–,–,% of the activation by the optimized sequence RNKEVKDALKRLLKRKCC (OR7C1): 95.4%
Tyr Pro,–,–,% of the activation by the optimized sequence RNKEVKDALKRLLKRKCC (OR7C1): 221.7%
Tyr Tyr,–,–,% of the activation by the optimized sequence RNKEVKDALKRLLKRKCC (OR7C1): 108.3%
Val Met,–,–,% of the activation by the optimized sequence RNKEVKDALKRLLKRKCC (OR7C1): 1.3%
Val Ser,–,–,% of the activation by the optimized sequence RNKEVKDALKRLLKRKCC (OR7C1): 4.3%

# Source: patent publication US20260210939A1, “MODIFIED OLFACTORY RECEPTORS” (GIVAUDAN SA, priority 2022, published 2026)
